Substitutions are numbered along the chain they refer to. Numbers in names are those of the source.

Usually Kd stands for the constant that tells how readily two partners part at equilibrium. A high value points to weaker binding.

The labels stand for the following.
B1: D265AFc/IL-2 (Fc fusion)
chain 1: EPRVPITQNPCPPLKECPPCAAPDLLGGPSVFIFPPKIKDVLMISLSPMVTCVVVAVSEDDPDVQISWFVNNVEVHTAQTQTHREDYNSTLRVVSALPIQHQDWMSGKEFKCKVNNRALPSPIEKTISKPRGPVRAPQVYVLPPPAEEMTKKEFSLTCMITGFLPAEIAVDWTSNGRTEQNYKNTATVLDSDGSYFMYSKLRVQKSTWERGSLFACSVVHEGLHNHLTTKTISRSLGKGGGSAPTSSSTSSSTAEAQQQQQQQQQQQQHLEQLLMDLQELLSRMENYRNLKLPRMLTFKFYLPKQATELKDLQCLEDELGPLRHVLDLTQSKSFQLEDAENFISNIRVTVVKLKGSDNTFECQFDDESATVVDFLRRWIAFCQSIISTSPQHHHHHH
chain 2: EPRVPITQNPCPPLKECPPCAAPDLLGGPSVFIFPPKIKDVLMISLSPMVTCVVVAVSEDDPDVQISWFVNNVEVHTAQTQTHREDYNSTLRVVSALPIQHQDWMSGKEFKCKVNNRALPSPIEKTISKPRGPVRAPQVYVLPPPAEEMTKKEFSLTCMITGFLPAEIAVDWTSNGRTEQNYKNTATVLDSDGSYFMYSKLRVQKSTWERGSLFACSVVHEGLHNHLTTKTISRSLGKGGGSDYKDDDDK
notes: also called D265A Fc/wt mIL-2
B2: mIL-2 QQ 6.2-10 (ligand)
chain: APTSSSTSSSTAEAQQQQQQQQQQQQHLEQLLMDLQELLSRMEDHRNLRLPRMLTFKFYLPEQATELEDLQCLEDELEPLRQVLDLTQSKSFQLEDAENFISNIRVTVVKLKGSDNTFECQFDDEPATVVDFLRRWIAFCQSIISTSPQ
notes: Reversion mutant
B3: mIL-2 QQ 6.2-4 (ligand)
chain: B2 chain with H45S, E62K, D131G
B4: mIL-2 QQ 6.2-13 (ligand)
chain: B2 chain with E68K
notes: Reversion mutant
B5: mIL-2 QQ 6.2-8 (ligand)
chain: APTSSSTSSSTAEAQQQQQQQQHLEQLLMDLQELLSRMEDHRNLRLPRMLTFKFYLPKQATELEDLQCLEDELEPLRQVLDLTQSKSFQLEDAENFISNIRVTVVKLKGSDNTFECQFDDEPATVVDFLRRWIAFCQSIISTSPR
notes: Reversion mutant
B6: mIL-2 QQ 6.2-11 (ligand)
chain: APTSSSTSSSTAEAQQQQQQQQQHLEQLLMDLQELLSRMEDSRNLRLPRMLTFKFYLPEQATELKDLQCLEDELEPLRQVLDLTQSKSFQLEDAENFISNIRVTVVKLKGSDNTFECQFDDEPATVVDFLRRWIAFCQSIISTSPQ
notes: Reversion mutant
B7: E76A IL-2 (ligand)
chain: B2 chain with D44N, H45Y, R49K, E62K, E68K, E76A, E78G, Q82H, P126S
notes: also called E76 mutants
B8: E76G IL-2 (ligand)
chain: B2 chain with D44N, H45Y, R49K, E62K, E68K, E76G, E78G, Q82H, P126S
notes: also called E76 mutants
B9: E76F mouse IL-2 (ligand)
chain: B2 chain with D44N, H45Y, R49K, E62K, E68K, E76F, E78G, Q82H, P126S
notes: also called E76 mutants
B10: E76R mouse IL-2 (ligand)
chain: B2 chain with D44N, H45Y, R49K, E62K, E68K, E76R, E78G, Q82H, P126S
notes: also called E76 mutants

The target in the first experiment is T1, soluble murine CD25 (murine, UniProt P01590 22-236, limits assumed).
T1 construct: also called soluble CD25; mouse CD25
T1 sequence (looked up): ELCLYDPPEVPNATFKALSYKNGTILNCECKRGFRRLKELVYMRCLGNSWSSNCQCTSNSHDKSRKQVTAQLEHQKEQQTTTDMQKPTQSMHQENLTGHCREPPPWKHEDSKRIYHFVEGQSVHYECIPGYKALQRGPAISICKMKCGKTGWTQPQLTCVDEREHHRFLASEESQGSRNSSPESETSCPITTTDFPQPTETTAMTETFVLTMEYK
Nature of the experiment: method not stated (legend of the schematic of Fc/IL-2).
For the molecule B1, the Kd was approximately 50 nM.

For a further experiment, the target named is T1, soluble murine CD25. Nature of the experiment: yeast surface display, titration with soluble murine CD25.
For the molecule B2, the binding result was “binds”.

For the molecule B3, the binding result is listed as “binds”.

With B4, the binding result is on record as “binds”.

Regarding B5, the binding result is reported as “binds”.

With B6, the binding result is recorded as “binds”.

The next experiment addresses T1, soluble murine CD25. The experiment is described as follows: yeast surface display, labeling with soluble CD25, flow cytometry. An excerpt: While all H82 and Q121 mutants retained CD25 binding, no CD25 binding was detected for E76 mutants (FIG. 4).
Take B7: the binding result is listed as “no binding (tested: 50 nM soluble CD25)”.

In the case of B8, the binding result is on record as “no binding (tested: 50 nM soluble CD25)”.

As to B9, the binding result is “no binding (tested: 5 or 50 nM soluble CD25)”.

In the case of B10, the binding result is given as “no binding (tested: 5 or 50 nM soluble CD25)”.

The record behind these values is patent US20150017120A1 (MIT, published 2015).
